The source of these data is the NTF2 design screens of Basanta et al. (2020).

A short description of this data set: protease stability score; higher = more stable; yeast display proteolysis, trypsin and chymotrypsin.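 Also: relative to predicted unfolded state with 0 unfolded-like and 1 meaning tenfold more protease.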
“REEEHAMKSMIDLWIESMNTGDERSISEMADPNAKNRVGDKTFVGMELLSHILFKLVKELGVRIEDHKIHDIKVQGDKIVSHVRLHLKYGDKEEDHETIIYTRKINGRWLIERVEVI” showed a protease stability score of 1.53.
“REEEHHLEKLARHIVHAILTGDERYLEKLMDPNTRVEIIDGEYRIERHGMHNIVHLLLEIRIHHFEIKRITTYNGQVDIDGEIDGEYGDKRDNRHVEIRFHFVNGRTKSFKVTWR” displayed a protease stability score of 1.31.
The value for “REEEKDEERMVHELMEWHRTGDEKTLNELLDPNARFIINGKHIHGREVFNEEVKRLGFRIEEYHLRRVRIYDGRIEFETEIDGEVNGRRLHIETRFHAIKINGQWRLKHIEFH” was 2.5.
Turning to “REEEKDIRDVLKLWKDISRTGDEHLIRRLVDPNARLNFNGREIHGREDVAEFLLRRWRQIDHLEIIDRDVRYQGDKVEFHGHVREKIGDKEETYELEFILVKIDGRWLVHSLHVH”, the protease stability score was 2.43.
The value for “REEEKFAIHLVRRVVEYLLTGDEDSLKRLADPNTRIHINGVDRHGMEESYKWWKSEIDHLRHHIVITRMRFIDGVIEVDIRLHSDFDGVRFSWNVHLILLVVDGRIKTDKMIVE” was 1.26; that for “REEEKIYHHLTEMWYEMLHTGNEEERERLFDPNTRVNIGDYHFHGREKLLEAYRRWRHMLGIKHYEVDRVEVIGDKVFSQGHSKAENHRLDVRIVIVVWNGRLKETSVDIH” was 1.04.
Sequence “REEEKKLEDIVKKLLEAWETGDEDFLIEMADPDTRVEFEAENHHEHRVGWENMIHWTHEVHRHLGVKHLMIDSSTIIGEKVHIDGTMNINGREVKIRIIIEIVDGRVKKIKIIVH” came in with a protease stability score of 1.71.
The value for “REEEKLWEHIFHLFIEDVLTGDEDRLREMLDPNVRLKAEGHDDHGRESMVKFNEELHKEIRFERIHLRRIHIIDGVSFMDVQIDGTVNGKHRSLESEIRIYIVDGRIRMVELRIR” was 1.25; that for “REEEKMFTMILEIIKHSLVTGDEDLTRNLVDPNMRLEINGQEVHGREEILRVLLELRVKEMHIDDVKFQGDKAEIDGTLDIEWNGQEDHLKVEIIFRKINGRWHIESIRLE” was 1.48; that for “REEEKMMRHIFRLDVILELTGDEEKWKHYADPNVRVIFIFENVHIEHHGRDAWVRLLHHMRIDRIIIHRLRVFENHNQADTFVKGEINGRELDMETHFYVLVINGRRKEVELEVR” was 1.46.
The value for “REEEKNLHTQMRLFAHALWTGDEDEIHRNMDPHVRSDIDGRELVGREWMIRLIEELRIRHVHIRHFHLQGDKLHLDTISHVIVNGVEVDMHTRVDVEKVNGRWLITSIRFD” was 1.18; that for “REEEQHAERFTKLFIEAFETGDWKELSRLLDPHARMEWNGRVHHGMEQIVEVLLKQFHDLGFRIEHVRIHDIRVQGEKIKVDVDIDGIVDGRREHWKVTLIILKVNGRWLTKEIEYR” was 1.31.
The value for “REEEREAKEWLERLIRDIITGDEDKMTNLIDPNVRILINGKHIHGWELYFKIWIDHVERFPNMRVDYHVKSITFFNGRIIMYYEERIHINGKEIRVDVHIQALKVNGRWILESVHNE” was 1.54; that for “REEERLTRHFAHRLFHSLMTGDEDELTELADPNARSIVDGRTVHGRETMSRIIHHKVRELGVDHNTIEHIEFQGNYVHVHMRIEVGDKTYTSIIHIEKVDGRWLVRSVNLL” was 0.491.
“REEESEWKKFFEDLLRSLVTGDESSLSKMIDPHARLDVDGREFHGREHMAHWIVRTLNEHGITIKIEIKDFRLVGDKVHVDGHEDIEVGDKRHERRLHIILLKFNGRWVIKELKVE” came in with a protease stability score of 2.67.
Take “REENEMLKRAIKHILRVLETGDFEDLSKMFDPHARLFFNGVLFMGRENVEHHWERERERYKNLRLHFRHVNYHVQGDKVFVEYHVDVTVGDKKWEVHFHFIVIKINGQWYNEDLEIEIR”: the protease stability score is 1.66.
In the case of “REIEEDVEKALRLWEKTMFTGDEDRFMELADPHTRVTFNGREVIGMEIWKTLVEELGIDVIKDTRIHDVKVQGNKVHVDSHRHVHFNGKTVEIRTRLIATKFDGRWHIESIRFQ” it was 0.803; in that of “REIEKSLEESLKMWLENLVTGDERQLSELVDPDAKLEVGDKHHVGMETISHMIRHMRIESIEIKSIRIFDGRAEIHAYVLGNINGQRKDLNEKLHWEKINGRWEVRKILLE”, 2.13.
The value for “REKDDEMDRIVKIFYHVLRTGNEELLDTLIDPDTRIEVDINGVNYISHGREEWKRVIEELLRHMRINSIIIHDIRYQGNKATIDNHADLEFDGVRFEMRSELRIIVVNGRYRSFSRIIR” was 1.13; that for “REKDDLLHEFTERYMTAIETGDEETLEKLMDPDVKLHVGEYHDHGREDVSEWLRTHLEQWRIERIEIQHVDLQGDKLRVDLIVHARVGDKRIILHTILISRKINGRWHIKFFSMR” was 1.3; that for “RELDEMAERAVEWYFRVLRTGDEHTLSRLLDPNVRVVFDGRTYIGREWYREHEEKLGVDHMRLDVKSVRNINGRIEVDVRVNREVNGQEIRIEMRMTSEKVDGRWEVKTVEEK” was 1.3.
In the case of “RELEESSKFFLKLIIEAFLTGDERTNSELADPNVRIHIGEFHYHGREEFSKLMEELVKRVKNATVINDIDHIEVQGEKIKMDGRLILIYNGRIFETRTSLIVVKIDGRWLIESVHVK” it was 1.48; in that of “RELERDSTELIKMWLRHLETGDEDVISELIDPNVKVDINGQDHHGREDATEWAMRVKNMTIIVRHLEFQGEKAFVTTEVRVNGKTVHVIVRSLKVDGRWRLESLEVHSE”, 1.59.
Sequence “REQEEFSENAIKLWEHLTKTGDEEKMTKLMDPHARLDVNGQQLVGRELIEKIIREILKRIDHLDHIEFEHIDNQGEKVIIHSRVIFIFNGRKIDTEVHVIMIKINGQWRIESMTEK” came in with a protease stability score of 1.18.
The value for “REQEELMREYYEIHTHVLKTGNEDALEKLLDPNVRIHIDGKELHGMEAWEILNKRFDHIRHSHIHDFRIIGDKLHIDGRQKGVVDGVEREVHVHIVIEKIDGRWKLKSFYFR” was 1.2.
Sequence “REQEHEAKVAVDEWREDMETGDEHRLRELMDPDVRNIVGDKELHGREAVEFLITQIDHVKHIHVRHLDIQGDYIRFEGEINIHVNGRDRTLDVELYFIKINGRWHIHKLRFD” yielded a protease stability score of 1.66.
“RESDEEREEFYKLLMHAYETGDERILNELMDPNVQIHQGEWHLHGRKDLRRRFKHLRIDHVDHITRDMRVVGDKIEVHGHIIVEGTVDGVRDTKSFDVHILTEKIDGQWFIKSVHIR”: the protease stability score stood at 0.903.
With “RETEEEIRHAHELLLEAEQTGDEHILHHMLDPNVRFQVGDKHIHGRENFMKQFRKLWEDFGVDHIEIRLKEMRVFENRVHVRGELIIRVGDKEMRTKHIEVSEKIDGKWLLHSVKFE”, the protease stability score was determined as 1.14.
“REWKEEMLRFLTRWNKAYKTGNEQELNKLADPNVRVDINGKQLHGRELATLIVSELRIEETHVKMDTFRIVGEKAEIDSRLEIHGVYDGVKMDTHHEVVIILRKVDGQWHLTTMEER” gave a protease stability score of 0.382.
In the case of “RHEEEVLEHWMRLYIEALLTGDEHTLHRLLDPNAKVHIDGRDVVGREEIVRWLREFWNEIRIKHLTISDLKIYGEYVHITGTLNVQVNGQTEHRRIEIDLVIIDGVFKESEVRIH” it was 2.39; in that of “RHEERHLEEKLQRLLHAWLTGDEDELTELADPDVRLKINGQHYIGWEQFFKALTDLRREMRIHDLKIKRKEIDGDKLVLDGETDGEINGVKRLHKTEIIIIMIDGRLRRVEFRQH”, 0.618.
In the case of “RKEEDEARKFLHTYIELMRTGDEDNLKEFVDPHVRLEVGDKRVVGWDRYVENVVELIEKVPNLRIHIDSVRAIGNWLHVDGTLIQGDKHREIHLHLQKIDGRWILTHQHVR” it was 1.34.
The value for “RKEEEDLHKLLEHLSENYWTGNEEMFNHLADPHTRFEIRIGEFTIEDHGRERIKELVEWLLRFLGANHSHLTSIRVVGDKFHVNSLIHVDGREHTLHIIFVFINGRLTHYSMEVR” was 1.35.
In turn, “RQEEHDMEYAREIVERVLDTGDEHLMEEYFDPNAKLRIGDKEDHGREVFAHWVREIRVRHVQLTDHRLVGDKLEFDIELDININGREHRTKVHLIIRKVNGKWFIQHVEIR” displayed a protease stability score of 1.19.
In the case of “RSEEHEAKDKVREWVEAYLTGDEDHLRRLHDPDMRFNWNGVEIHGMEEFSHWMHKYMYELGVDHTHVTVRHIEFYGDKIHADTKLFIRQGDKEREHHSQVHIEVINGQFKRLEIREH” it was 0.829; in that of “SAEEHAQRVILELLIEAYETGDEDMLRRLFDPNVRIEIGDKDFVGREDFDHLLERVKNVVFHEIRLRDVKVYNGKVEDNGEINIRYGDKSRTHQVKIVMIKVDGRWMLHDFEIK”, 1.96; in that of “SDAERHSQEVLRLWIKAAKTGDEDKFRNYIDPHVRVEINGKEIHGRDILLEEMRRRDVIRHVRVTDSRHYDGVVIMDVEVDGHVNGRDVETQTTSFIIKIDGKWVWQSFVQI”, 0.98.
The value for “SDDEEDVWRMAEIILKLFYTGDEEKFRNLADPNVRLNFNGRNFIGRENLEKHLRELRIHRIELREMDLKVINGRAEVRVRGFVDGEIDGQRYHSEVRLIMIITKVDGRWIIESIEFEQL” was 2.59.
The value for “SDDEEEVLRLMDHILHALWTGDWKHLEENMDPNVRSHINGQDVHGMERVVEFILRELKELRFEHLHIEHVEIIGNKATLHYRVDGHINGRRINRRVHLEVTMVNGRVKQVIFFNE” was 2.08.
Sequence “SDDEHAAHLIIFIWTFALITGDEQTLKELLDPNVKNEFNGVELHGREQVEEHVRRYDWVTDFKFRVDDIQHQGEKIILDGTLVITMEFDGRREDIKSRFILIVRKVDGKWHLERLIIV” yielded a protease stability score of 1.86.
Turning to “SDDEQNVRDTFTEFVESMETGDEDHMLEMVDPHVRIEFENHSHIGRDNVHRWILFFKNATLRWKLERMHVYDGRVEIHSRMEVEVNGREIEFNIILHVRKVDGKWVIHEIRIH”, the protease stability score came out at 1.14.
On to “SDDEREDRIAIDILLRSTETGDEDTVRHMFDPNARVDVDGREIHGRDASKLFMERVDHIHEVKIDDIKTINGRVHNEGTWYGEYGDKKSELKVHWVLLKIDGRWLIKEVRIR”, for which the protease stability score came out at 1.57.
Consider “SDDERLAHHLVELLLHNIETGDFRMLMHLIDPNVRIDINGVEIHGREEWHKHLRTLGFDHFELHIDSIDAFDGKVIVHTTIRIKYNGVHFEKKTHLIAEKFDGRWYMREIRER”, for which the protease stability score is 1.55.
Take “SDDERMLHLLIKILIRAIQTGDEDTLLRQVDPHVRIDIDGRDIVGREDLIEFAKHWRFELREVNIRHMEIYGEYIHAEVEVRGKIIIGDKEVETTVDTRHIILKINGRWFFHSISVK”: the protease stability score turned out to be 1.26.
Turning to “SDDHEEAKEALRLWVEDLLTGDEDRLRELVDPNARIEIIVNGRTIEYHGRDRVNKWTSFVLLRLGVKHSHVHEIRLIDGRVHNDLRIHQGDKDQILHLSFEKINGKWTLREVKISVV”, the protease stability score worked out at 1.39.
In the case of “SDDHHKAKLFNEWFKQHFDTGDEHLYKRLADPNVRIHINGVDIVGRELATHLLSHIRITHFEVHDHKVQGNKVHTDGRVHGDVNGVEERVYVELVIEKIDGRWLNHQEIWV” it was 0.332; in that of “SDEDEDARRVMELLLELFETGNWRELSKLADPHVRMEIDGQDFHGRELFEHFVRELIEKFKGAKLELRVHTLDLINGVMYSDIHIHLNVNGRKLDIRSHFRILKIDGRWLTRSFHFK”, 1.25.
